Source: the nanobody polyreactivity screen of Harvey et al. (2022)

Assay: yeast display, Sf9 membrane polyspecificity reagent, FACS + sequencing; frameworks hold sequencing errors
In short: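 Sorting gates, low and high (top ~1%), were placed on anti-HA fluorescence to track expression and on streptavidin fluorescence to track reagent binding. A clone's polyreactivity label is taken from the gate it came out of. The reagent was 10% biotinylated, detergent-solubilized Sf9 membrane, applied for 1 hour at 4 °C to galactose-induced yeast display cells.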

Sequence	polyreactivity (PSR sort gate)
QVQLVESGGGLVQAGGSLRLSCAASGSTFGQYVMAWYRQAPGKERELVAAISSGDSTNYADSVKGRFTISRDNAKNTVYLQMNSLKPEDTAVYYCAAARRPTYWPVYPYFGYEYWGQGTQVTVSS	low polyreactivity
QVQLVESGGGLVQAGGSLRLSCAASGLTFEHNAMGWYRQAPGKEREFVAVISWRGTSTYYADSVKGRFTISRDNAKNTVYLQMNSLKPEDTPVYYCATRYYGDDGYRYDHWGQGTQVTVSS	high polyreactivity
QVQLVESAAGLVQAVGSLRLSCAPSGITFYDYTMGWYRQAPGKERELVAAITSSGVSTYYADSVKGRFTISRDNAKNTVYLQMNSLKPEDTAVYYCATDAWSVYSYLAFTYDYWGQGTQVTVSS	low polyreactivity
QVQLVESGGGLVQAGGSLRLSCAASGSTFWFNAMGWYRQAPGKERELVAISGSVGSTYADSVKGRFTISRDNAKNTVYLQMNSLKPEDTAVYYCNADSVWYRNPWSFSPRYNYWGQGTQVTVSS	low polyreactivity
QVQLVESGGGVVQAGGSLRLSCAASGIIFDGNAMGWYRQAPGKERELVAAITSSTDSTYYADSVKGRFTFSRDNAKNTVYLQMNSLKPEDTAVYYCAADYPSKTFDYWGQGTQVTVSS	low polyreactivity
QVQLVESGGGLVQAGGSLRLRCAASGRTFWRYAMGWYRQAPGKEREFVAAISSSGGNTYYADSVKGRFTITRDNANNTVYLQTNSLKPEDTAVYYCAAYYITALGIKDYVRYYWGQGTQVTVSS	high polyreactivity
QVQLVESGGGLVQAGGSLRLSCTASGIIFGTYAMGWYRQAPGKERELVAAISSSGVSTYYADSVKGRFTISRDNAKYTDYLQMNSLKPEDTAVYYCAAPLHYGYYYCGQGTQVTVSS	high polyreactivity
QVQLVESGGGLVQAGGSLRLSCAASGSIFSYYAMGWYRQAPGKERELVARITRGGDGTYYADSVKGRFTISRDNAKNTDYLQMNSLKPEDTAVYYCARRQVLYTRDFEYDYWGQGTQVTVSS	low polyreactivity
QVQLVESGGGLVQAGGSLRLSCAASGRIFPAYAMGWYRQAPGKERELVAAITGGGSTNYADSVKGRFTISRDNAKNTVYLQMNSLKPEDTAVYYCNAVTGTYGWAPQAREQEDYWGQGTQVTVSS	low polyreactivity
QVQLVESGGGVVQAGGSLRLSCAASGFIFSVIVMGWYRQAPGKERELVASIPSGGSPYYADSVKGRFTISRDNAKNTVYLQMNSLKPEDTAVYYCAAEFVRSVEHHPGFDYWGQGTQVTVSS	low polyreactivity
QVQLVESGGGLVQAGGSLRLSCAASGRIFSKYAMGWYRQAPGKARELVAAISTSTGSTYYADSVKGRFTISRDNAKNTVYLQMNSLKPEDTAVYYCAAVGSRWFSQTWRDYWGQGTQVTVSS	high polyreactivity
QVQLVESGGGLVQAGGSLRLSCAASGSTFPVNAMGWYRQAPGKERELVAAISSTGTSTYYADSVKGRFTISRDNAKNTVYLQMNSLKPEDTAGYYCAAETWVWGYVLYDYWGQGTQVTVSS	high polyreactivity
QVQLVESGGGLVQAGGSLRLICAASGSIFVNNAMGWYRQAPGKERELVAAISRSGGSTYYADSVKGRFTISRDNAKNTVYLQMNSLKPEDTAVYYCATVHRSSTPPEFNYWGQGTQVTVSS	high polyreactivity
QVQLVESGGGLVQAGGSLRLSCAASGFTFRYYAMGWYRQAPGKERELVASISARGGITNYADSVKGRFTISRDNAKISVYLQMNSLKPEDTAVYYCAADVFSWYGEYDYWGQGTQVTVSS	high polyreactivity
QVQLVESGGGLVQAGGSLRLSCAASASTFVYYAMGWYRQAPGKERELVAAISRSGTSTYYADSVKGRFTISRDNAKNTVYLQMNSLKPEDTAVFYCNARKKQGFDYWGQGTQVTVSS	high polyreactivity
QVQLVESGGGLVQAGGSLRLSCAASGSIFGTYAMGWYRQAPGKERELVAAISFIGGDTYYADSVKGRFTISRDNAKNTVYLQMNSLKPEDTAVYYCAADRELSGYGGEYWGQGTQVTVSS	low polyreactivity
QVQLVQSGGGLVQAGGSLSLSCAASGSTFARNTMGWYRQAPGKERELVAAISYSGVTTYYADSVKGRFPISRDNEKNTVYLQMNSLKPEDTAVYYCAKLPYRRVDYGYWGQGTQVTVSS	high polyreactivity
QVQLVESGGGLVQAGGSLRLSCAASGSTIEPNSMGWYRQAPGKEREFVAAITTRGGSTFYADSVKGRFTISRDNAKNTVYLQMNSLKPEDTAVYYCAADYYFVDYDYWGQGTQVTVSS	low polyreactivity
QVQIVESGGGLVQAGGSLRLSCAASGRIFYNYAMGWNRQAPGKERELVAAISGSGGSTYYADSVKGRFTISRDNAKNTVYLQMNSLKPEDTAVYYCSTSGPQYYSRNFDYWGQGTQVTVSS	low polyreactivity
QVKLVESGGGLVQEGGSLRLSCAASGRICGNYSMGWYRQAPGKERELVAAIDLSGDSTYYADSVKGRFTISRDNAKNTVYLQMNSLKPEDTAVYYCAATDWFSEYYWGQGTQVTVSS	low polyreactivity
QVQLVESGGGLVQAGGSLRLSCAASGSILVPYTMGWYRQAPGKERELVASISYSGGTTYYADSVKGRFTISRDNAKNTVYLQMNSLKPEDTAVYYCAADWDESYSYRRYRHYNYWGQGTQVTVSS	low polyreactivity
QVQLVESGGGLVQAGGSLRLSSAASGSIFVPYAMGWYRQAPGKEREFVAAIYSGGGNTYYADSVKGRFTISRDNAKNTVYLQMNSLKPEDTAVYYCAAAYVYSSWSRYDYWGQGTQVTVSS	high polyreactivity

Sequence	polyreactivity (PSR sort gate)
QVQLVESGGGLVQAGGSLSLICAASGSIFYEYAMGWYRQAPGKEREFVAAISSSGGSTYYADSVKGRFTISRDNAKNTVYLQMNSLKPEYTAVYYCNAQVGGVSIEYDYWGQGTQVTVSS	low polyreactivity
QVQLVESGGGLVQAGGSLRLSCAASGRTFGYYGLGWYRQAPGKERELVASINFSSGSTFYADSVKGRFTISRDNAKNTVYLQMNSLKPEDTAVYYCAARTDVGWYSRYGYWGQGTQVTVSS	low polyreactivity
QVQLVESGGGLVQEGGSLRLSCAASGRTSGFNTMGWYRQAPRKERELVAAISFSGGSTYYADSVKGRFTISRDNAKNTVYLQMNSLNPEDTAVYYCNALYRYLYRSGDYWGHGTQVTVSS	low polyreactivity
QVQLVESGGGLVQAGGSLRLSCAASGLIFIAYAMGWYRQATGKERELVAAISSSGGSTYYADSVKGRFTISRDNAKNTVYLQMTSLKREDTAVYYCAADRYAWGTGRYGYWGQGTQVTVSS	low polyreactivity
QVQLVESGGGLVQAGGSLRLSCAASGSTFPGNALGSYRQAPGKERELVAAIRDRGTSTYYADSVKGRFTISRDNAKNTFYLQMNSLKPEDTAVYYCAASSSNKEYDYWGQGTQVTVSS	high polyreactivity
QVQLVESGGGLVQAGGSLRLSCAPSGGTFIYYAMGWYRQAPGKERELVAAISSGGSTYYADSVKGRFTISRDNAKNTVYLQMNSLKPEDTAVYYCAKRRAVQIVDLEYWRQGTQVTVSS	low polyreactivity
QVQLVESGGGLVQAGGSLRLSCAASGRIFFRNTMGWYRQAPGKERELVAAISGSGGSTYYADSVKGRFTISRDNAKNTVYLQMNSLKPEDTAVYYCAKRWLYPISYDYWGQGTQVTVSS	high polyreactivity
QVQLVESGGGLVQAGGSLRLSCAASGRTFWYYEMGWYRQAPGKERELVATINNVGSTHYADSVKGRFTISRDNAKNTVYLQMNSLKPEDTAVYYCGRASYGKMDYWGQGTQVTVSS	high polyreactivity
QVQLVESGGGLVQAGGSLRLICAASGRIYIKNAMGWYRQAPGKERELVAAISSGSSTYYADSVKGRFTISRDNAKNSVYLQMYSLKPEDTAVYYCAAPDYRNGVRYPLDYWGQGTQVTVSS	low polyreactivity
QVQLVESGGGLVQAGGSLRLSCAASGSIFDPYAMGWYRQAPGKERELVAAITASGSSTYYADSVKGRFTISRDNAKNTVYLQMNSLKPEDTAVYYCAADRANWEYLLSWLGYDYWGQGTQVTVSS	low polyreactivity
QVQLVESGAGLVQAGGSLRLCCAASGFIFYLNTMGWYRQAPGKERELVAGITWRGGTTYYADSVKGRFTISRDNAKNSVYLQMNSLKPEDTAVYYCAARRYSRPYSYGFYYWGQGTLVTVSS	high polyreactivity
QVQLVESGGGLVQAGGSLRLSCAASGIIFGFNTMGWYRQAPGKERELVAAINGSDGSTYADSVKGRFTISRDNAKNTVYLLMNSLKPEDTAVYYCAARYGSRKEYTYADMDYWGQGTQVTVSS	low polyreactivity
QVQLVESGGGLLQAGGSLRLSCAASGLIFQNYAMGSYRQAPGKEREFVATITSSGTSTYYADSVKGRFTISRDNAKNTVYLQMNSLKPEDTAVYYCAATGYWWEYDYWGQGTQVTVSS	high polyreactivity
QVQLEESGGGLVQAGGSLRLSCAASGRILRGYVMGWYRQAPGKERELVATITGRGGSTYYADSVKGRFTISRDNAKNTVYLQMNSLKPEDTAVYYCNKDGYPYFGRSEYWGQGTQVTVSS	low polyreactivity
QVQLVESGGGIVQAGGSLRLSCAASGRIFSGNAMGWYRQAPGKERELVATISRRGGSTYYADSVKGRFTISRDNAKNTVYLLMNSLKPEDTAVYYCAVDPYAWTKWSTYNYWGQGTQVTVSS	high polyreactivity
QVQLVESGGGLVQAGGSLRLSCAASGRIFSVYDMGWYRQAPGKERELVAAIDTSDGSTNYADSVTGRFTISRDNAKNTVYLQMNSLKPEDTAVYYCNATDSYVPFDYWGQGTQVTVSS	low polyreactivity
QVQLVESGGGLVQAGGSLRLSCAASGSIFSNYAMGWYRQAPGKERELVAAISRSGGSTRYADSVKGRFTISRDNAKNTVYLQMNSLKPEDTAVYYCNAVRYPRLMYYWGQGTQVTVSS	high polyreactivity
QVQLEESGGGLVQAGGSLRLTCAASGRIFHSNDMGWNRQAPGKERELVAAITKVGGTNYADSVKGRFTISRDNAKNTVSLQMNSLKPEDTAVYYCAAAFYLYSPISGVYLSYSEYDYWGQGSQVTVSS	high polyreactivity
QVQLVESGGGLVQAGGSLRLSCAASGLIFWYYAMGWYRQAPGKERELVAAINKIGGSTYYADSVKGRFTISRDNAKNTVYLQMNSLKPEDTAVYYCAADAPYYPVRRYYYWGQGTQVTVSS	low polyreactivity
QVQLVESGGGLVQAGGSLRLSCAASGSILSGYAMGWYRQAPGTERELVAAINDGGGTNYADSVKGRFTISRDNAKNTVYLQMKSLKPEDTAVYYCAAEQSVSFLVFTGVKFDYWGQGTQVTVSS	low polyreactivity
QVQLVESGGGLVQAGGSLRLSCAASGLIFTTNAMGSYRQAPGKEREFVAAISPSGGSTYYADSVKGRFTISRDNAKNTVYLQMNRLKPEDTAVYYCAARYSPVWHKYYYWGQGTQVTVSS	high polyreactivity
